B1: CER21: Tim4 binding and transmembrane domains, TLR8 signaling domain; SEQ ID NO:88 (protein)
chain: MSKGLLLLWLVTELWWLYLTPAASEDTIIGFLGQPVTLPCHYLSWSQSRNSMCWGKGSCPNSKCNAELLRTDGTRIISRKSTKYTLLGKVQFGEVSLTISNTNRGDSGVYCCRIEVPGWFNDVKKNVRLELRRATTTKKPTTTTRPTTTPYVTTTTPELLPTTVMTTSVLPTTTPPQTLATTAFSTAVTTCPSTTPGSFSQETTKGSAFTTESETLPASNHSQRSMMTISTDIAVLRPTGSNPGILPSTSQLTTQKTTLTTSESLQKTTKSHQINSRQTILIIACCVGFVLMVLLFLAFLHHLFYWDVWFIYNVCLAKVKGYRSLSTSQTFYDAYISYDTKDASVTDWVINELRYHLEESRDKNVLLCLEERDWDPGLAIIDNLMQSINQSKKTVFVLTKKYAKSWNFKTAFYLALQRLMDENMDVIIFILLEPVLQHSQYLRLRQRICKSSILQWPDNPKAEGLFWQTLRNVVLTENDSRYNNMYVDSIKQY
modifications: CER21 chimeric engulfment receptor
B2: CER122: Tim4 binding and transmembrane domains, TLR2 primary and DAP12 secondary signaling domains; SEQ ID NO:149 (protein)
chain: MSKGLLLLWLVTELWWLYLTPAASEDTIIGFLGQPVTLPCHYLSWSQSRNSMCWGKGSCPNSKCNAELLRTDGTRIISRKSTKYTLLGKVQFGEVSLTISNTNRGDSGVYCCRIEVPGWFNDVKKNVRLELRRATTTKKPTTTTRPTTTPYVTTTTPELLPTTVMTTSVLPTTTPPQTLATTAFSTAVTTCPSTTPGSFSQETTKGSAFTTESETLPASNHSQRSMMTISTDIAVLRPTGSNPGILPSTSQLTTQKTTLTTSESLQKTTKSHQINSRQTILIIACCVGFVLMVLLFLAFLHRFHGLWYMKMMWAWLQAKRKPRKAPSRNICYDAFVSYSERDAYWVENLMVQELENFNPPFKLCLHKRDFIPGKWIIDNIIDSIEKSHKTVFVLSENFVKSEWCKYELDFSHFRLFDENNDAAILILLEPIEKKAIPQRFCKLRKIMNTKTYLEWPMDEAQREGFWVNLRAAIKSYFLGRLVPRGRGAAEAATRKQRITETESPYQELQGQRSDVYSDLNTQRPYYK
modifications: CER122 protein
B3: CER104: Tim4 binding and transmembrane domains, TLR8 primary and DAP12 secondary signaling domains; SEQ ID NO:133 (protein)
chain: MSKGLLLLWLVTELWWLYLTPAASEDTIIGFLGQPVTLPCHYLSWSQSRNSMCWGKGSCPNSKCNAELLRTDGTRIISRKSTKYTLLGKVQFGEVSLTISNTNRGDSGVYCCRIEVPGWFNDVKKNVRLELRRATTTKKPTTTTRPTTTPYVTTTTPELLPTTVMTTSVLPTTTPPQTLATTAFSTAVTTCPSTTPGSFSQETTKGSAFTTESETLPASNHSQRSMMTISTDIAVLRPTGSNPGILPSTSQLTTQKTTLTTSESLQKTTKSHQINSRQTILIIACCVGFVLMVLLFLAFLHHLFYWDVWFIYNVCLAKVKGYRSLSTSQTFYDAYISYDTKDASVTDWVINELRYHLEESRDKNVLLCLEERDWDPGLAIIDNLMQSINQSKKTVFVLTKKYAKSWNFKTAFYLALQRLMDENMDVIIFILLEPVLQHSQYLRLRQRICKSSILQWPDNPKAEGLFWQTLRNVVLTENDSRYNNMYVDSIKQYYFLGRLVPRGRGAAEAATRKQRITETESPYQELQGQRSDVYSDLNTQRPYYK
modifications: CER104 protein
B4: CER123: Tim4 binding and transmembrane domains, TLR2 primary and TRAF6 secondary signaling domains; SEQ ID NO:150 (protein)
chain: MSKGLLLLWLVTELWWLYLTPAASEDTIIGFLGQPVTLPCHYLSWSQSRNSMCWGKGSCPNSKCNAELLRTDGTRIISRKSTKYTLLGKVQFGEVSLTISNTNRGDSGVYCCRIEVPGWFNDVKKNVRLELRRATTTKKPTTTTRPTTTPYVTTTTPELLPTTVMTTSVLPTTTPPQTLATTAFSTAVTTCPSTTPGSFSQETTKGSAFTTESETLPASNHSQRSMMTISTDIAVLRPTGSNPGILPSTSQLTTQKTTLTTSESLQKTTKSHQINSRQTILIIACCVGFVLMVLLFLAFLHRFHGLWYMKMMWAWLQAKRKPRKAPSRNICYDAFVSYSERDAYWVENLMVQELENFNPPFKLCLHKRDFIPGKWIIDNIIDSIEKSHKTVFVLSENFVKSEWCKYELDFSHFRLFDENNDAAILILLEPIEKKAIPQRFCKLRKIMNTKTYLEWPMDEAQREGFWVNLRAAIKSMSLLNCENSCGSSQSESDCCVAMASSCSAVTKDDSVGGTASTGNLSSSFMEEIQGYDVEFDPPLESKYECPICLMALREAVQTPCGHRFCKACIIKSIRDAGHKCPVDNEILLENQLFPDNFAKREILSLMVKCPNEGCLHKMELRHLEDHQAHCEFALMDCPQCQRPFQKFHINIHILKDCPRRQVSCDNCAASMAFEDKEIHDQNCPLANVICEYCNTILIREQMPNHYDLDCPTAPIPCTFSTFGCHEKMQRNHLARHLQENTQSHMRMLA
modifications: CER123 protein

Experiments:
[1] = tested on: HCC827 lung adenocarcinoma cells; assay: MTT viability and bright field microscopy of HCC827 cells with CER T cells and Osimeritinib; type: cell-based; conditions: Osimeritinib 1 nM, 48 hours, CD4+ T cells
Excerpt: CD4+ T cells were transduced with lentiviral vectors encoding various CERs (CER21, CER108, CER104, CER129, CER27, CER120, CER122, CER123, CER124, or CER126). Mock transduced (vector only) CD4+ T cells were used as control. CER21 comprises a Tim4 binding domain, Tim4 transmembrane domain, and an engulfment signaling domain comprising a primary engulfment signaling domain comprising a TLR8 signaling domain. CER21 has a polypeptide sequence as set forth in SEQ ID NO:88. CER108 has a polypeptide sequence as set forth in SEQ ID NO:137 and comprises a Tim4 binding domain, Tim4 transmembrane domain, and an engulfment signaling domain comprising a primary engulfment signaling domain comprising a DAP12 signaling domain and a secondary engulfment signaling domain comprising a TLR8 signaling domain. CER104 has a polypeptide sequence as set forth in SEQ ID NO:133 and comprises a Tim4 binding domain, Tim4 transmembrane domain, and an engulfment signaling domain comprising a primary engulfment signaling domain comprising a TLR8 signaling domain and a secondary engulfment signaling domain comprising a DAP12 signaling domain. CER129 has a polypeptide sequence as set forth in SEQ ID NO:177 and comprises a Tim4 binding domain, Tim4 transmembrane domain, and an engulfment signaling domain comprising a primary engulfment signaling domain comprising a TLR8 signaling domain and a secondary engulfment signaling domain comprising a TRAF2 signaling domain. CER27 comprises a Tim4 binding domain, Tim4 transmembrane domain, and an engulfment signaling domain comprising a primary engulfment signaling domain comprising a TLR2 signaling domain. CER27 has a polypeptide sequence as set forth in SEQ ID NO:93. […] T cells were washed away, and the number of viable HCC827 cells was quantified using a calorimetric MTT assay. […]

SCC152 cells = assay: Magnitude breadth of phagocytosis by CER-transduced CD4+ T cells; type: cell-based, human; conditions: 8 hours co-culture with CD8/E7 TCR T cells and SCC152 cells
Procedure: Various CER-modified CD4+ T cells were also evaluated for breadth of response to determine whether a particular CER confers a broad phagocytic response of low magnitude (e.g., 10% engulfment in 90% of cells) or a less frequent but strong phagocytic response (e.g., 90% engulfment in 10% of cells) in the host cells. CD8+ T cells were transduced with HPV16 E7 specific TCR as described in Example 5. CD4+ T cells were transduced with lentiviral vectors comprising a CER21, CER27, CER104, CER116, or CER117 nucleic acid. Mock-transduced (vector alone) CD4+ T cell were used as control. CD4+/CER+ and CD8+/E7 TCR+ T cells were stained with CELLTRACE violet. […] HPV16 E7 TCR transduced CD8+ T cells and selected CER transduced CD4+ T cells were mixed at a 1:1 ratio and co-cultured with SCC152 cells at a 1:1 ratio for 8 hours. Phagocytosis of target SCC152 cells by CER-transduced CD4+ T cells was analyzed by fluorescence microscopy. […] The horizontal axis represents the % area of CER-transduced CD4+ T cells having engulfment or % area of […]. This measure was rarely above 40% across CER types tested. The vertical axis represents the proportion of CER-transduced CD4+ T cells that were phagocytic. For CER104, about 20% of CER104-transduced CD4+ T cells have more than 10% engulfment. For CER117-transduced CD4+ T cells, less than 10% have more than 10% engulfment.

[2] = tested on: HCC159 lung adenocarcinoma cells; assay: LDH-based cytotoxicity, HCC159 cells; type: cell-based; conditions: Osimeritinib 0, 1, 5 nM; E:T 2:1 or 5:1; 18 hours
Procedure: HCC159 lung adenocarcinoma cells were co-cultured with CER123- or CER126-expressing CD4+ T cells with increasing concentrations of Osimeritnib (0, 1 nM, 5 nM). After 18 hours of co-culture, bulk supernatants were evaluated using a LDH-based cytotoxicity assay. T cells assays were performed using purified, EGFR^+ (transduction marker), CER modified T cells 7 days after activation using CD3 & CD28 microbeads at effector:target cell ratios of 2:1 or 5:1. Control “Mock” T cells were transduced with vector alone. […] Bulk supernatants were also analyzed after 18 hours of co-culture for Interferon Gamma (IFNγ) secretion (FIG. 50). Control “Mock” T cells were transduced with vector alone.

H1975 NSCLC cells = assay: LDH-based cytotoxicity, H1975 cells, 18 hours co-culture; type: cell-based; conditions: Osimeritinib 0, 500, 1000 nM, E:T 2:1 or 5:1
Procedure: H1975 NSCLC cells were co-cultured with CER123- or CER126-expressing CD4+ T cells with increasing concentrations of Osimeritnib (0, 500 nM, or 1000 nM). Mock-transduced (vector only) T cells were used as control. Assays were performed using CER modified T cells purified by FACS using an EGFR specific antibody 7 days after activation using CD3 & CD28 microbeads. CER modified T cells and H1975 cells were co-cultured at effector:target cell ratios of 2:1 or 5:1. After 18 hours of co-culture, bulk supernatants were evaluated using LDH-based cytotoxicity assay.

Molecule	bright field microscopy of HCC827 co-culture [1]	proportion of CER-transduced CD4+ T cells that have more than 10% engulfment (SCC152 cells)	cell killing of HCC159 cells (LDH) [2]	cell killing of H1975 cells (LDH) (H1975 NSCLC cells)
B1	cluster of dead HCC827 EGFR^+ cells surrounded by phagocytic CER21^+ T cells			
B2	cluster of dead HCC827 EGFR^+ cells surrounded by phagocytic CER122^+ T cells			
B3	cluster of dead HCC827 EGFR^+ cells surrounded by phagocytic CER104^+ T cells	about 20%		
B4			inducible cell killing responses	inducible cell killing responses
